Assay results taken from PMC10945814.

Biological target: Abx(+)D, TcmI-like aromatase/cyclase of the (+)-anthrabenzoxocinone pathway (Actinomycetes sp. MA7150)
Test: crystal structure

stoichiometry N: 2
Substance: Abx(+)D, TcmI-like aromatase/cyclase of the (+)-anthrabenzoxocinone pathway (enzyme)
